# B1: Nb1, C-terminally LPETGG-His6-EPEA-tagged (pHEN29) (VHH)
# VHH: QVQLVESGGGLVQPGGSLRLSCAASGFTLDYYAIGWFRQAPGKEREGVSCISSSDGSTYYADSAKGRFTISRDNAKNTVYLQMNSLKPEDTAVYYCATDRGQCTYYSSGYYRDLRWYDYWGQGTQVTVSS
# Target: randomly biotinylated GCase (Velaglucerase) (human, UniProt P04062, biotin, randomly on lysine residues (EZ-Link Sulfo-NHS-LC-Biotin); glycosylated)
# Test: BLI
# randomly biotinylated GCase (Velaglucerase), sequence (P04062 40-536): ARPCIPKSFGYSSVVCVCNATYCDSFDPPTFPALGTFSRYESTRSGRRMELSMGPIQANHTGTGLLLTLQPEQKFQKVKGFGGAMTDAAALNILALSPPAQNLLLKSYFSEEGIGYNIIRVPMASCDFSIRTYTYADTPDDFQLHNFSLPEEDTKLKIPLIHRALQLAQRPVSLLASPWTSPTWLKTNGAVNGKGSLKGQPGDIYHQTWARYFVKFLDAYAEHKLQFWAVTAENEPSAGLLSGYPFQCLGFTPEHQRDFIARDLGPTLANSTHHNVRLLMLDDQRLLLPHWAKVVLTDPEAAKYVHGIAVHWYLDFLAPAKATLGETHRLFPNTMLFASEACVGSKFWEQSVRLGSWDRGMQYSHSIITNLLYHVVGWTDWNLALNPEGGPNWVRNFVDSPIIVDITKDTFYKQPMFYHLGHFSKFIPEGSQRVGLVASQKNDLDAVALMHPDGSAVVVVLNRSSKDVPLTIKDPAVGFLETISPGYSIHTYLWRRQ
binder,measurement,value
B1,Kd,< 5 nM

# Source: paper PMC12117155 (Nature Communications, 2025)
